Source: paper PMC9723501 (Nucleic Acids Research, 2022)

What was measured:
ITC = target: the molecule itself; experiment: ITC
SEC-MALS = target: the molecule itself; experiment: SEC-MALS

B1: PV 2C NΔ39 (poliovirus 2C protein lacking the amino-terminal 39 residues) (domain or fragment)
chain: ARDKLEFVTKLRQLEMLENQISTIHQSCPSQEHQEILFNNVRWLSIQSKRFAPLYAVEAKRIQKLEHTINNYIQFKSKHRIEPVCLLVHGSPGTGKSVATNLIARAIAERENTSTYSLPPDPSHFDGYKQQGVVIMDDLNQNPDGADMKLFCQMVSTVEFIPPMASLEEKGILFTSNYVLASTNSSRISPPTVAHSDALARRFAFDMDIQVMNEYSRDGKLNMAMATEMCKNCHQPANFKRCCPLVCGKAIQLMDKSSRVRYSIDQITTMIINERNRRSNIGNCMEALFQ
- Kd (ITC): ~400 nM
- stoichiometry N (SEC-MALS): 2
